Assay results published in patent publication US5780265A, “Kunitz type plasma kallikrein inhibitors” (Genentech, Inc., priority 1995, dated 1998).
Like-named read-outs stand apart in the source and are kept apart here. Bridges are numbered along the chain shown (N, C = ends). Where no end group is shown, it is not given here.

Tests used:
plasma kallikrein [1] = biological target: T1, plasma kallikrein (Homo sapiens, UniProt P03952); assay: Apparent equilibrium dissociation constant (Ki*) with plasma kallikrein; format: biochemical
T1 construct: Human plasma kallikrein and Factor XIIa were purchased; purchased Enzyme Research Laboratories, Inc. (South Bend, Ind.)
T1 sequence (P03952 391-638 limits assumed): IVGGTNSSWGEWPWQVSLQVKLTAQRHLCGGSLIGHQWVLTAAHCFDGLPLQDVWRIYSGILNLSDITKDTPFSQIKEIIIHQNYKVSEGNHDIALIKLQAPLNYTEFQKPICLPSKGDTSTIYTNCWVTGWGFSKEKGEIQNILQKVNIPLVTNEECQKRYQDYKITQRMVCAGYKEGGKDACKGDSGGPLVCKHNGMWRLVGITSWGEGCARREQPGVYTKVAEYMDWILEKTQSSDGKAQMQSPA
T1 sequence (P03952 20-390 limits assumed): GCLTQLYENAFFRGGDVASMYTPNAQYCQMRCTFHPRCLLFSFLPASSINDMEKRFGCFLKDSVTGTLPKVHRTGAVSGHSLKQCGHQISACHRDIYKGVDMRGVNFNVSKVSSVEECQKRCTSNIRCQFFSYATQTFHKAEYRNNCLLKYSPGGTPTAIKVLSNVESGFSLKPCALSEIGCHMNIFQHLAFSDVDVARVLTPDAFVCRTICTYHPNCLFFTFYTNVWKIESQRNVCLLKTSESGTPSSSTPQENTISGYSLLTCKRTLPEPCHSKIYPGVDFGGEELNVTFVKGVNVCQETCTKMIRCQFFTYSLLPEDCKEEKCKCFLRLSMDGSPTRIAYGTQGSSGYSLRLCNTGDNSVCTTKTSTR
Experimental: Reactions (200 μL) were carried out in microtiter plates and the rate substrate (0.7 mM S2302) was monitored at 405 nm following a 1.5 h incubation. Plots of the fractional rate versus inhibitor concentration were fit by nonlinear regression analysis to Equation 1 to determine apparent equilibrium dissociation constants (Ki *):

Factor XIa [2] = biological target: T2, Factor XIa (Homo sapiens, UniProt P03951); assay: Apparent equilibrium dissociation constant (Ki*) with FXIa; format: biochemical; conditions: at least 3 independent measurements
T2 construct: purchased Haematologic Technologies Inc. (Essex Jct., Vt.)
T2 sequence (P03951 388-625 limits assumed): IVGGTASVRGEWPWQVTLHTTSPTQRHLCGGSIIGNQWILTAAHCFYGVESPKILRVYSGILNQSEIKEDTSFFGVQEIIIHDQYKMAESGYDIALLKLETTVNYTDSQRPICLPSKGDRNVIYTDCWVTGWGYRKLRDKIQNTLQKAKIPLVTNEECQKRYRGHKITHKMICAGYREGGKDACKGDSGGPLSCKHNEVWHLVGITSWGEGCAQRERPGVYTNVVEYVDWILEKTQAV
T2 sequence (P03951 19-387 limits assumed): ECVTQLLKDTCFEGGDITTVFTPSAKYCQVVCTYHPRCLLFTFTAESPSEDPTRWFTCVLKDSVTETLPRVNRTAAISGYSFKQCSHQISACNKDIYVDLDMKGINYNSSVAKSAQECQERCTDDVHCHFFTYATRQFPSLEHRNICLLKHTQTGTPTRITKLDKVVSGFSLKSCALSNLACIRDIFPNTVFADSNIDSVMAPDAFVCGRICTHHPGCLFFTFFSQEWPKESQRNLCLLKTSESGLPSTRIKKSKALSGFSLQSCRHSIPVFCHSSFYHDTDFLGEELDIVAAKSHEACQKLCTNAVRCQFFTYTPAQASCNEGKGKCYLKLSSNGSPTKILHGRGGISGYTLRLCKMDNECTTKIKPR
Experimental: (§3) Serine proteases (1 to 20 nM) were assayed in the presence of 100 nM inhibitor. […] The degree to which FXIa was inhibited by selected inhibitors including the consensus mutants was further investigated by measuring the Ki *.

plasma kallikrein [3] = biological target: T1, plasma kallikrein; assay: Specificity assay, plasma kallikrein; format: biochemical; conditions: 100 nM inhibitor; plasma kallikrein 3.5 nM, 0.7 mM S2302; 2 h room temperature
Experimental: (§4) Aliquots (30 μL) of various inhibitors diluted to 500 nM were incubated with each protease (100 μL) in the appropriate buffer. After incubation of the substrate/inhibitor mixes at room temperature for 2 h, the appropriate substrate (20 μL) was added, and the absorbance at 405 nm was monitored. […] The FXIa assay also contained 1 mg/mL BSA. The concentration of FXIa throughout refers to the concentration of active sites. For this experiment, the concentrations of thrombin, TF-FVIIa, FXa, FXIa, FXIIa, and plasmin are approximate and are determined based upon the manufacturers' specifications.
as §3

[4] = system: extrinsic coagulation pathway; assay: Prothrombin time (PT) clotting assay, tissue factor initiated; format: biochemical; conditions: normal human plasma, TF initiated
Experimental: (§1) FIG. 5A and FIG. 5B. […] The uninhibited clotting times were 33.6 sec and 14 sec for the APTT and PT, respectively
(§2) Clotting times for normal human plasma were performed using an MLA Electra 800 Coagulometer (Medical Laboratory Automation, Inc. Pleasantville, N.Y.) and Dade reagents (Baxter Health Care Corp., Miami Fla.). The clotting time was determined by optical assessment.

[5] = biological target: T3, TF-FVIIa (tissue factor-Factor VIIa) (Homo sapiens, UniProt P08709); assay: Specificity assay, TF-FVIIa; format: biochemical; conditions: 100 nM inhibitor; TF 77 nM-FVIIa 14 nM, 0.7 mM S2366
T3 construct: purchased Haematologic Technologies Inc. (FVIIa); TF made in house; host or cells: E. coli (TF 1-243)
T3 sequence (P08709 213-466 limits assumed): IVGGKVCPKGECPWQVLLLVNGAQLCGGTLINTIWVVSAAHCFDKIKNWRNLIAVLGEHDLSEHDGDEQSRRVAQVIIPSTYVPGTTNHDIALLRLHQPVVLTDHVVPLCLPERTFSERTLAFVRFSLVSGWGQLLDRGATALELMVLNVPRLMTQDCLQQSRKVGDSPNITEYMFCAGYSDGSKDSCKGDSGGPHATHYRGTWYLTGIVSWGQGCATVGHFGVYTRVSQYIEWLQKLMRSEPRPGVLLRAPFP
T3 sequence (P08709 61-212 limits assumed): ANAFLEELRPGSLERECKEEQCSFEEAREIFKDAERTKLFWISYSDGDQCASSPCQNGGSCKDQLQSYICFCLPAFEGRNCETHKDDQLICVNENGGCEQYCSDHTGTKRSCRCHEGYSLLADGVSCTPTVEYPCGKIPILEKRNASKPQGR
T3 sequence (P13726 33-275 partner limits assumed): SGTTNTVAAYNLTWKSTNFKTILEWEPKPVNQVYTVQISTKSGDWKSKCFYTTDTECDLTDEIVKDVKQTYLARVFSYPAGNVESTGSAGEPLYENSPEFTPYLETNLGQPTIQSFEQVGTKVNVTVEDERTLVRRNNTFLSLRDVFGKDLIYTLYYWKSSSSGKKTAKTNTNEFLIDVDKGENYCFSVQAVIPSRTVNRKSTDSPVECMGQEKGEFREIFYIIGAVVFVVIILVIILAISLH
Experimental: as §4, §3

[6] = system: intrinsic coagulation pathway; assay: Activated partial thromboplastin time (APTT) clotting assay in normal human plasma; format: biochemical; conditions: 1 μM inhibitor
Experimental: as §1, §2
For the activated partial thromboplastin time (APTT) assays, the activation time was set at 120 sec and acquisition time at 300 to 600 sec depending on the expected outcome of the assay. Citrated normal human plasma and inhibitor were incubated together. The sample (plasma and inhibitor) and activator (Actin FS) were automatically pipetted and incubated is together for 2 min at 37° C., then CaCl2 was added and clotting time determined by means of optical assessment. The total incubation time of inhibitor with plasma was ca. 3 min before addition of activator, and 5 min before addition of CaCl2.

Factor XIa [7] = biological target: T2, Factor XIa; assay: Specificity assay, Factor XIa; format: biochemical; conditions: 100 nM inhibitor; FXIa […], 0.7 mM S2366, 1 mg/mL BSA
Experimental: as §4, §3

Factor Xa = biological target: T4, Factor Xa (Homo sapiens, UniProt P00742); assay: Specificity assay, Factor Xa; format: biochemical; conditions: 100 nM inhibitor; FXa 2.5 nM, 0.7 mM Spectrozyme fXa
T4 construct: purchased Haematologic Technologies Inc. (Essex Jct., Vt.)
T4 sequence (P00742 235-488 limits assumed): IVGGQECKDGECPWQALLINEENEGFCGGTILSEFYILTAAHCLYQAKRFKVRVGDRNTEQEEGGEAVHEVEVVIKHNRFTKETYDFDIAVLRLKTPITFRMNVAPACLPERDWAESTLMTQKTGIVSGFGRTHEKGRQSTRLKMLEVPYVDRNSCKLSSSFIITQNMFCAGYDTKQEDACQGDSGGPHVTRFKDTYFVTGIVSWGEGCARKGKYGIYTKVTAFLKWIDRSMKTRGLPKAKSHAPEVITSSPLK
T4 sequence (P00742 41-179 limits assumed): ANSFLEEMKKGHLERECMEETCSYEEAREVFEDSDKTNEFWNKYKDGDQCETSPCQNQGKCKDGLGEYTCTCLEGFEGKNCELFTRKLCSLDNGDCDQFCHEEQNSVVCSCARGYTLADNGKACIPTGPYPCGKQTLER
Experimental: (§5) Aliquots (30 μL) of various inhibitors diluted to 500 nM were incubated with each protease (100 μL) in the appropriate buffer. After incubation of the substrate/inhibitor mixes at room temperature for 2 h, the appropriate substrate (20 μL) was added, and the absorbance at 405 nm was monitored. […] For this experiment, the concentrations of thrombin, TF-FVIIa, FXa, FXIa, FXIIa, and plasmin are approximate and are determined based upon the manufacturers' specifications.
(§6) Serine proteases (1 to 20 nM) were assayed in the presence of 100 nM inhibitor.

thrombin = biological target: T5, thrombin (Homo sapiens, UniProt P00734); assay: Specificity assay, thrombin; format: biochemical; conditions: 100 nM inhibitor; thrombin 6.2 nM, 0.7 mM S2366
T5 construct: purchased Haematologic Technologies Inc. (Essex Jct., Vt.)
Experimental: as §5, §6

activated protein C = biological target: T6, activated protein C (Homo sapiens, UniProt P04070); assay: Specificity assay, activated protein C; format: biochemical; conditions: 100 nM inhibitor; activated protein C 7.6 nM, 0.7 mM S2366
T6 construct: purchased Haematologic Technologies Inc. (Essex Jct., Vt.)
T6 sequence (P04070 212-461 limits assumed): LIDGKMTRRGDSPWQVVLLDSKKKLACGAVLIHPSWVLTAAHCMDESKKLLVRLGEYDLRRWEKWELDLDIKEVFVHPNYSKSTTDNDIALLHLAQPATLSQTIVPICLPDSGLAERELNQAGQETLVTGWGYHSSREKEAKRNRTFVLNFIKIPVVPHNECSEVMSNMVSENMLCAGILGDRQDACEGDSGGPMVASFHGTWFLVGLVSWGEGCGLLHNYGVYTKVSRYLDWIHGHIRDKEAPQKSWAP
T6 sequence (P04070 43-197 limits assumed): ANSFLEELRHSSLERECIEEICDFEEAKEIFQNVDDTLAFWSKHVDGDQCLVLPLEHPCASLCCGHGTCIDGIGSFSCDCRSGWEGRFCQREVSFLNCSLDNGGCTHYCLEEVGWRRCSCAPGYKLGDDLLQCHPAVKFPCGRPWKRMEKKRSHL
Experimental: as §4, §3

plasmin = biological target: T7, plasmin (Homo sapiens, UniProt P00747); assay: Specificity assay, plasmin; format: biochemical; conditions: 100 nM inhibitor; for fraction of remaining proteolytic activity, plasmin: plasmin 32 nM, 0.7 mM S2251
T7 construct: Human plasmin, S-2302, S-2251, and S-2366 were purchased from Kabi Vitrum (Sweden); purchased Kabi Vitrum (Sweden)
T7 sequence (P00747 581-810 limits assumed): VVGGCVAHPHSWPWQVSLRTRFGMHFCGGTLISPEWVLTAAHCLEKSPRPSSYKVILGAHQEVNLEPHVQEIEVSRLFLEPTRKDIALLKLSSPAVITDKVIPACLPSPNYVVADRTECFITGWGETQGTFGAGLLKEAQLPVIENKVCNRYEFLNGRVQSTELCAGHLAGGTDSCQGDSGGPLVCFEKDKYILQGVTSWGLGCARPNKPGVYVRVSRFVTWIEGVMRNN
T7 sequence (P00747 97-580 limits assumed): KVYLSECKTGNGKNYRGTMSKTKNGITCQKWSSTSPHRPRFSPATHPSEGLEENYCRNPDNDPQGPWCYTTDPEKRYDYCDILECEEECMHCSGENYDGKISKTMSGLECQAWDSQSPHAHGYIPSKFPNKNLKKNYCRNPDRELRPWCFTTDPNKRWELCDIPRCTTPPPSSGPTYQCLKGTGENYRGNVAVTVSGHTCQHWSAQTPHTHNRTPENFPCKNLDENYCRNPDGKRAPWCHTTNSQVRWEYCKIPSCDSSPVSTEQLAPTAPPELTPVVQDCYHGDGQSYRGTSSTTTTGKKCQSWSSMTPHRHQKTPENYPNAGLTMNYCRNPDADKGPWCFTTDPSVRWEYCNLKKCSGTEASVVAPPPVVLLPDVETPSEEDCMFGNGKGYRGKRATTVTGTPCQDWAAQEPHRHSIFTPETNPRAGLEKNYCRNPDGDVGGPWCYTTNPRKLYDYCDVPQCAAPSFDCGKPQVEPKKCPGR
Experimental: as §4, §3

Factor XIIa = biological target: T8, Factor XIIa (Homo sapiens, UniProt P00748); assay: Specificity assay, Factor XIIa; format: biochemical; conditions: 100 nM inhibitor; 0.7 mM S2302
T8 construct: purchased Enzyme Research Laboratories, Inc. (South Bend, Ind.)
T8 sequence (P00748 373-615 limits assumed): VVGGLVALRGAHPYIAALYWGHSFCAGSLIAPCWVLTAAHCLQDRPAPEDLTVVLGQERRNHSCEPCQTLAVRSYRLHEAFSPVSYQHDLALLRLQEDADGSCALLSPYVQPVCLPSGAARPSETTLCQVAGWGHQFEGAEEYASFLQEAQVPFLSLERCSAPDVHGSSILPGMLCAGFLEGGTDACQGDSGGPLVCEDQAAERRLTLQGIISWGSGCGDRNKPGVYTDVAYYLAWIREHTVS
T8 sequence (P00748 20-372 limits assumed): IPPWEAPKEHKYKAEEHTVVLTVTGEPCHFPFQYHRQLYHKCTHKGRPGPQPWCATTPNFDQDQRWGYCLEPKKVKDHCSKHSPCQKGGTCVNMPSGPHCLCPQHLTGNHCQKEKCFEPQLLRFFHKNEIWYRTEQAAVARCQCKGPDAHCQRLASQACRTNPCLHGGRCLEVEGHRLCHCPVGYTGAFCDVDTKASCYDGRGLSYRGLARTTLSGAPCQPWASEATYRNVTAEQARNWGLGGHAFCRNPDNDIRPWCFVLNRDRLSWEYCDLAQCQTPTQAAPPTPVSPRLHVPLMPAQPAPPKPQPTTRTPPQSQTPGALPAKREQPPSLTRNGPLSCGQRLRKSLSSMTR
Experimental: as §5, §6

plasma kallikrein [8] = conditions: Seymour et al. 1994; read-out: Ki for plasma kallikrein (literature); cited from earlier work
[9] = 25° C., pH 7.5, 0.7 mM S2302, 1.5 h incubation, at least 3 independent measurements, read-out: Plasma Kallikrein Ki*

Row | Molecule | Ki (plasma kallikrein [1]; [9]) [pM] | Ki (Factor XIa [2]) [pM] | fraction of remaining proteolytic activity, plasma kallikrein (plasma kallikrein [3]) | fraction of remaining proteolytic activity, TF · Factor VIIa [5] | fraction of remaining proteolytic activity, Factor XIa (Factor XIa [7]) | fraction of remaining proteolytic activity, Factor Xa (Factor Xa) | fraction of remaining proteolytic activity, thrombin (thrombin) | fraction of remaining proteolytic activity, activated protein C (activated protein C) | fraction of remaining proteolytic activity, plasmin (plasmin) | fraction of remaining proteolytic activity, Factor XIIa (Factor XIIa) | further results
1 | CC(C)[C@H](N)C(=O)N[C@@H](CCCNC(=N)N)C(=O)N[C@@H](CCC(=O)O)C(=O)N[C@H](C(=O)N[C@H]1CSSC[C@@H](C(=O)NCC(=O)N[C@@H](CO)C(=O)N[C@@H](C)C(=O)O)NC(=O)[C@H](C(C)C)NC(=O)[C@H](C)NC(=O)[C@H](C)NC(=O)[C@@H]2CSSC[C@@H]3NC(=O)[C@H](CCCCN)NC(=O)CNC(=O)[C@H](CCC(=O)O)NC(=O)[C@H]([C@@H](C)O)NC(=O)[C@H](C(C)C)NC(=O)[C@H](CC(=O)O)NC(=O)[C@H](Cc4ccccc4)NC(=O)[C@H](Cc4ccc(O)cc4)NC(=O)[C@H](Cc4c[nH]c5ccccc45)NC(=O)[C@H](CCCNC(=N)N)NC(=O)[C@@H]4CCCN4C(=O)[C@H](Cc4c[nH]cn4)NC(=O)[C@H](C)NC(=O)[C@H](C)NC(=O)[C@H](CCCNC(=N)N)NC(=O)[C@H](CSSC[C@H](NC(=O)CNC(=O)CNC(=O)[C@H](Cc4ccc(O)cc4)NC(=O)[C@H](C(C)C)NC(=O)[C@H](Cc4ccccc4)NC(=O)[C@@H]4CCCN4C(=O)[C@H](C)NC3=O)C(=O)NCC(=O)NCC(=O)N[C@@H](CC(N)=O)C(=O)N[C@@H](CCCNC(=N)N)C(=O)N[C@@H](CC(N)=O)C(=O)N[C@@H](CC(N)=O)C(=O)N[C@@H](Cc3ccccc3)C(=O)N[C@@H](CC(=O)O)C(=O)N[C@@H]([C@@H](C)O)C(=O)N[C@@H](CCC(=O)O)C(=O)N[C@@H](CCC(=O)O)C(=O)N[C@@H](Cc3ccc(O)cc3)C(=O)N2)NC(=O)[C@H](Cc2c[nH]cn2)NC(=O)CNC(=O)[C@H](CCC(=O)O)NC(=O)[C@H](CCC(=O)O)NC(=O)[C@H](C)NC(=O)[C@H](CCC(N)=O)NC(=O)[C@H](CCC(=O)O)NC(=O)[C@H](CO)NC1=O)C(C)C [KALI-EV] | 117 ± 59 | – | – | – | – | – | – | – | – | – | –
2 | APPI: 58 amino acid Kunitz domain from human Alzheimer's disease amyloid β-protein precursor, residues 287-344; here Met52 replaced with Ala [reference compound] | – | 2700 ± 1400 | 0.81 | 0.60 | 0.03 | – | – | – | – | – | prolongation of clotting time in PT assay (in words) [4]: neither KALI-DY, BPTI, nor APPI appreciably prolonged; fold prolongation of clotting time, APTT [6]: 2.8 fold
3 | KALI-8: APPI Kunitz domain mutant, R1 LGHCRAAIPR2 FR3 (SEQ ID NO: 3) (VREVCSEQAELGHCRAAIPRWYFDVTEGKCAPFFYGGCGGNRNNFDTEEYCAAVCGSA) | – | – | 0.00 | 0.94 | 0.00 | 1.13 | 0.99 | 0.89 | 0.83 | 1.00 | –
4 | KALI-13: APPI Kunitz domain mutant, R1 SGHCRAAIPR2 FR3 (SEQ ID NO: 1) (VREVCSEQAESGHCRAAIPRWYFDVTEGKCAPFFYGGCGGNRNNFDTEEYCAAVCGSA) | – | – | 0.00 | 0.96 | 0.01 | 0.97 | 0.96 | 0.90 | 0.65 | 1.00 | –
5 | KALI-30: APPI Kunitz domain mutant, R1 EGHCRAAILR2 FR3 (SEQ ID NO: 5) (VREVCSEQAEEGHCRAAILRWYFDVTEGKCAPFFYGGCGGNRNNFDTEEYCAAVCGSA) | – | – | 0.00 | 1.02 | 0.00 | 0.68 | 1.00 | 0.81 | 0.53 | 0.92 | –
6 | KALI-46: APPI Kunitz domain mutant, R1 EGRCRASILR2 FR3 (SEQ ID NO: 33) (VREVCSEQAEEGRCRASILRWYFDVTEGKCAPFFYGGCGGNRNNFDTEEYCAAVCGSA) | – | – | 0.00 | 0.86 | 0.00 | 1.02 | 0.99 | 0.83 | 0.64 | 0.97 | –
7 | KALI-48: APPI Kunitz domain mutant, R1 TGHCRAAIPR2 FR3 (SEQ ID NO: 2) (VREVCSEQAETGHCRAAIPRWYFDVTEGKCAPFFYGGCGGNRNNFDTEEYCAAVCGSA) | – | – | 0.00 | 0.95 | 0.01 | 0.55 | 0.99 | 0.92 | 0.23 | 0.99 | inhibition of plasmin (plasmin): > 60%
8 | VREVCSEQAEDGHCRAAHPRWYFDVTEGKCAPFFYGGCGGNRNNFDTEEYCAAVCGSA (disulfide 5-55, 14-38, 30-51) [KALI-D] | 25 ± 22 | 5700 ± 7000 | – | – | – | – | – | – | – | – | –
9 | VREVCSEQAEDGHCRAAHPRWYFDVTEGKCAPFVYGGCGGNRNNFDTEEYCAAVCGSA (disulfide 5-55, 14-38, 30-51) [KALI-DV] | 43 ± 34 | 1300 ± 1400 | – | – | – | – | – | – | – | – | –
10 | VREVCSEQAEDGHCRAAHPRWYFDVTEGKCAPFYYGGCGGNRNNFDTEEYCAAVCGSA (disulfide 5-55, 14-38, 30-51) [KALI-DY] | – | 8200 ± 3500 | – | – | – | – | – | – | – | – | Ki (plasma kallikrein [1]; read-out: Ki* for plasma kallikrein): 15 ± 14 pM
11 | VREVCSEQAEEGHCRAAHPRWYFDVTEGKCAPFFYGGCGGNRNNFDTEEYCAAVCGSA (disulfide 5-55, 14-38, 30-51) [KALI-E] | 103 ± 54 | 4500 ± 4000 | – | – | – | – | – | – | – | – | –
12 | VREVCSEQAEEGHCRAAHPRWYFDVTEGKCAPFYYGGCGGNRNNFDTEEYCAAVCGSA (disulfide 5-55, 14-38, 30-51) [KALI-EY] | 980 ± 75 | 7300 ± 5500 | – | – | – | – | – | – | – | – | –
13 | VREVCSEQAEPGHCRAAHPRWYFDVTEGKCAPFFYGGCGGNRNNFDTEEYCAAVCGSA (disulfide 5-55, 14-38, 30-51) [KALI-P] | 200 ± 99 | 13800 ± 17400 | – | – | – | – | – | – | – | – | –
14 | VREVCSEQAEPGHCRAAHPRWYFDVTEGKCAPFVYGGCGGNRNNFDTEEYCAAVCGSA (disulfide 5-55, 14-38, 30-51) [KALI-PV] | 166 ± 70 | 4100 ± 5200 | – | – | – | – | – | – | – | – | –
15 | VREVCSEQAEPGHCRAAHPRWYFDVTEGKCAPFYYGGCGGNRNNFDTEEYCAAVCGSA (disulfide 5-55, 14-38, 30-51) [KALI-PY] | 136 ± 81 | 11700 ± 11900 | – | – | – | – | – | – | – | – | –
16 | ecotin: a 142 residue protein from E. coli | – | – | – | – | – | – | – | – | – | – | Ki (plasma kallikrein [8]): ~160 pM
